Measured values taken from patent US20210214435A1 (MorphoSys, published 2021).

T1: mouse GPVI (full-length) expressed on stably transfected CHO cells (mouse, UniProt P0C191 22-313)
T1 sequence: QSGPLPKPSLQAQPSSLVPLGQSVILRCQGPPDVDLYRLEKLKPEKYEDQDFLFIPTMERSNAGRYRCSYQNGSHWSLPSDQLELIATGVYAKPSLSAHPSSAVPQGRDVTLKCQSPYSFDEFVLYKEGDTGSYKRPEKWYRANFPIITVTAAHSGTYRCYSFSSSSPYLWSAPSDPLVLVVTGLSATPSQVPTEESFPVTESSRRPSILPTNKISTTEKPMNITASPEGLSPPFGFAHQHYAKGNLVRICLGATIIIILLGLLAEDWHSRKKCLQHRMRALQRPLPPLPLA

T2: mouse GPVI on the cell surface of mouse platelets (mouse, UniProt P0C191 22-313)
T2 construct: whole, on cells; also called GPVI on murine platelets
T2 sequence (looked up): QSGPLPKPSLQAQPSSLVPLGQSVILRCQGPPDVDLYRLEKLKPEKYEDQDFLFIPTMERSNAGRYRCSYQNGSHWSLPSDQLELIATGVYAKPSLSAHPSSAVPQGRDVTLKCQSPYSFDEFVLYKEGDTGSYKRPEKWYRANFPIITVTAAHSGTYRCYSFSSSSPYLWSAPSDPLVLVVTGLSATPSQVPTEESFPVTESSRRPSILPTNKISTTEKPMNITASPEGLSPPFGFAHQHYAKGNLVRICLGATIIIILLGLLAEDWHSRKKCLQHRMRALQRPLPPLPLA


Tests used:
[1] = biological target: T3, human GPVI-1B extracellular domain fused at its C-terminus to human IgG1 Fc (GPVI-Fc) (human); test: ELISA, coated GPVI-Fc, Fab titrated
T3 construct: Low frequency haplotype 'b'; also called hGPVI-lb; hGPVI-1b
Method: (§1) 0.5-2 nM of recombinant GPVI-Fc-fusion proteins (as described in Example 1) were coated overnight on Maxisorp microtiter plates at 4° C. […] Following washing with PBST, Fabs (comprising a modified heavy chain constant region) serially diluted to concentrations in the range of 600 nM to 1 pM in PBST with 5% skim milk powder (MPBST) were added for 1 h at RT. Plates were washed with PBST. Bound Fab was detected using an alkaline phosphatase-conjugated detection antibody (Jackson Immuno Research) diluted in MPBST and directed against human F(ab′)2 fragment. After washing with TBS supplemented with 0.05% Tween-20 (TBST), AttoPhos substrate (Roche) diluted in ddH2O was added and fluorescence intensity measured at a Tecan Infinite 200Pro reader. EC50 values were calculated using Prism 5 software (GraphPad).

[2] = biological target: T4, human GPVI-1A extracellular domain fused at its C-terminus to human IgG1 Fc (GPVI-Fc) (human); test: ELISA, coated GPVI-Fc, Fab titrated
T4 construct: also called hGPVI-1a; hGPVI
Method: as §1

[3] = biological target: T5, human GPVI-2A extracellular domain fused at its C-terminus to human IgG1 Fc (GPVI-Fc) (human); test: ELISA, coated GPVI-Fc, Fab titrated
T5 construct: Isoform 2, haplotype 'a'; also called hGPVI-2a
Method: as §1

[4] = biological target: T6, cynomolgus monkey GPVI extracellular domain fused at its C-terminus to human IgG1 Fc (GPVI-Fc) (cynomolgus monkey; human); test: ELISA, coated GPVI-Fc, Fab titrated
T6 construct: also called cyGPVI-2; cyGPVI
Method: as §1

[5] = biological target: T7, rat GPVI extracellular domain fused at its C-terminus to human IgG1 Fc (GPVI-Fc) (rat; human); test: ELISA, coated GPVI-Fc, Fab titrated
T7 construct: also called rGPVI
Method: as §1

[6] = biological target: T8, mouse GPVI extracellular domain fused at its C-terminus to human IgG1 Fc (GPVI-Fc) (mouse; human); test: ELISA, coated GPVI-Fc, Fab titrated
T8 construct: also called mGPVI; mouse GPVI-Fc
Method: as §1

[7] = biological target: T8, mouse GPVI extracellular domain fused …; test: Competition ELISA (MSD): mouse GPVI-Fc preincubated with Fab, then on coated VitroCol (competitor)
Method: (§2) 1 or 10 μg/ml of recombinant GPVI collagen substrate (crosslinked collagen-related peptide (CRP-XL (Anaspec, Inc.), rat-tail collagen (Enzo Life Sciences) or VitroCol (Advanced BioMatrix, Inc.) was coated on a MSD-plate over night at 4° C., washed with PBST, blocked for 1 h at RT with PBS supplemented with 0.05% Tween-20 and 3% skim milk powder, and subsequently washed again with PBST. Purified recombinant GPVI antigens (human, cynomolgus monkey or mouse GPVI as prepared in Example 1) diluted in PBS and varying concentrations of Fab (comprising a modified heavy chain constant region) diluted in PBS (final concentration range 200-0.3 μg/ml) were incubated in a polypropylene plate for 30 min at RT. Fab/GPVI-Fc mixture was added to coated collagen substrate for 1 h at RT. After washing with PBST, bound GPVI form different species was detected using an ECL-conjugated detection antibody directed against human Fc (Jackson Immuno Research) for 1 h at RT. MSD read buffer (Meso Scale Discovery) was added prior to readout in a Sector Imager6000 (Meso Scale Discovery).

[8] = biological target: T6, cynomolgus monkey GPVI extracellular …; test: Competition ELISA (MSD): cynomolgus GPVI-Fc preincubated with Fab, then on coated rat-tail collagen (competitor)
Method: as §2

[9] = biological target: T1, mouse GPVI (full-length) expressed on …; test: Cell ELISA (MSD) on CHO cells expressing mouse GPVI
[10] = biological target: T7, rat GPVI extracellular domain fused at …; test: ELISA on coated rat GPVI-Fc
[11] = biological target: T2, mouse GPVI on the cell surface of mouse …; test: FACS on mouse platelets
[12] = biological target: T8, mouse GPVI extracellular domain fused …; test: ELISA on coated mouse GPVI-Fc

EC50 [1] [pM]	EC50 [2] [pM]	EC50 [3] [pM]	EC50 [4] [pM]	EC50 [5] [pM]	EC50 [6] [pM]	IC50 [7] [pM]	Max. inhibition at 200 nM Fab [%] [7] [%]	IC50 [8] [pM]	Max. inhibition at 200 nM Fab [%] [8] [%]	binding result [9]	binding result [10]	binding result [11]	binding result [12]	binding result [5]	Binder
450	410	650	420	53100	6550	4300	99	7100	100						Fab #2 comprising a modified heavy chain constant region (Fab, V domains shown, Human Fab from the Ylanthia library; produced in HKB11 cells; also called Fab #2 mod; HC) VH: QVQLVESGGGLVKPGGSLRLSCAASGFSFSDHYMSWIRQAPGKGLEWVSSVGSEGKFIDYAASVKGRFTISRDNAKNSLYLQMNSLRAEDTAVYYCARHYREFRWHYYYFDYWGQGTLVTVSS VL: QSVLTQPPSVSGAPGQRVTISCTGSSSNIGAGYDVHWYQQLPGTAPKLLIYGNSNRPSGVPDRFSGSKSGTSASLAITGLQAEDEADYYCQSHDLGAHVWVFGGGTKLTVLG
390	350	480	370	9650	1360	3300	100	7600	99						Fab #3 comprising a modified heavy chain constant region (Fab, V domains shown, Human Fab from the Ylanthia library; produced in HKB11 cells; also called Fab #3 mod; HC) VH: QVQLVESGGGLVKPGGSLRLSCAASGFSFGDYYVSWIRQAPGKGLEWVSAIGGSGSAVQYAESVKGRFTISRDNAKNSLYLQMNSLRAEDTAVYYCARHYREFRWHYYYFDYWGQGTLVTVSS VL: QSVLTQPPSVSGAPGQRVTISCTGSSSNIGAGYDVHWYQQLPGTAPKLLIYGNSNRPSGVPDRFSGSKSGTSASLAITGLQAEDEADYYCQSHDLGAHVWVFGGGTKLTVLG
480	410	740	500	9320	1000	6700	94	9100	83						Fab #4 comprising a modified heavy chain constant region (Fab, V domains shown, Human Fab from the Ylanthia library; produced in HKB11 cells; also called Fab #4 mod; HC) VH: QVQLVQSGAEVKKPGASVKVSCKASGGAFTSSYMHWVRQAPGQGLEWMGIIEPTGASTLYAQRFQGRVTMTRDTSTSTVYMELSSLRSEDTAVYYCARTGIALPLGFDLWGQGTLVTVSS VL: QSVLTQPPSVSAAPGQKVTISCSGSSSNIGNNYVSWYQQLPGTAPKLLIYDNNKRPSGIPDRFSGSKSGTSATLGITGLQTEDEADYYCAAWSTRFRWVFGGGTKLTVLG
1000	930	1430	580					8800	99	no binding	no binding	no binding	no binding		Reference Control Antibody RefFab #1 (humanized GPVI antibody of WO2011073954A2, SANOFI) (Fab, V domains shown, Cloned into mammalian Fab expression vectors; a glycine-serine linker (G4S)2 was added to the C-terminus of the Fab heavy chain) VH: EVQLLESGPGLVAPSGSLSITCTVSGFSLTGYGVNWVRQPPGKGLEWLGMIWGDGSTDYQSTLKSRLSISKDNSKSQVFLKMNSLRTDDTARYYCARDLPMDYWGLGTSVTVSS VL: DIQMTQSPSSLSASVGGRVTITCKASQDINKYIAWYQHKPGKGPSLLIHYTSTLQPGVPSRFSGSGSGRDYSFSISNLQPEDIATYYCLQYANLLTFGGGTKLEIKR
660	460	930	530			9100	96	9600	86					binds	Fab #1 comprising a modified heavy chain constant region (Fab, V domains shown, Human Fab from the Ylanthia library; produced in HKB11 cells; also called Fab #1 mod; HC) VH: QVQLVQSGAEVKKPGASVKVSCKASGYTFTSHYMHWVRQAPGQGLEWMGLIEPSEGETEYAQRFQGRVTMTRDTSTSTVYMELSSLRSEDTAVYYCARDSSRSYPLGFDIWGQGTLVTVSS VL: QSVLTQPPSVSAAPGQKVTISCSGSSSNIGNNYVSWYQQLPGTAPKLLIYDNNKRPSGIPDRFSGSKSGTSATLGITGLQTEDEADYYCAAWDFRSSRWVFGGGTKLTVLG
